The target in the test is T1, human CD19 (human, UniProt P15391 20-556).
T1 construct: CD19 as expressed on Raji, NALM-6 and SU-DHL-6 cells; also called CD19 antigen; B-cell surface antigen B4
T1 sequence: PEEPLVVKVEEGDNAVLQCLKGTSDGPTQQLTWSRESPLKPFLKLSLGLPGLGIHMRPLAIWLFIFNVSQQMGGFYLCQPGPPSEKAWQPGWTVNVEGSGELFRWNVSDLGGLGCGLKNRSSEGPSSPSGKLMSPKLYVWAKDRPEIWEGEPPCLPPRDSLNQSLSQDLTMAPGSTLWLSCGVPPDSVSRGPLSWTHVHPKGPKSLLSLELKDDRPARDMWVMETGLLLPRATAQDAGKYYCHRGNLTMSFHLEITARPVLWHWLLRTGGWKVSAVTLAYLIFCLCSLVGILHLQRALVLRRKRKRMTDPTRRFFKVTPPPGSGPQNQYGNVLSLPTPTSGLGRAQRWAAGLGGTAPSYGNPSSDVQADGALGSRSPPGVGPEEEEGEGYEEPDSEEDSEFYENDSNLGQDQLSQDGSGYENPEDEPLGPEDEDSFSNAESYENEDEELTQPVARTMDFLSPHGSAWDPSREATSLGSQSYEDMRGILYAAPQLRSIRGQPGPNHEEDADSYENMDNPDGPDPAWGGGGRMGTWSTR
Briefly: flow cytometry, Raji cells, MPF vs chimeric FMC63. How it is done: Binding of the CD19 humanized monoclonal antibodies by flow cytometry to Raji tumor cells (human Burkitt lymphoma, DSMZ ACC319), NALM-6 (human B cell precursor leukemia, DSMZ ACC128) and SU-DHL-6 (human B cell lymphoma, DSMZ ACC572) (all cell lines from DSMZ Braunschweig, Deutschland) was assessed. Cells were incubated with serial dilutions of each humanized monoclonal antibody. An irrelevant human IgG1 was used as a negative control. The cells were washed and detected by a phycoerythrin-labeled (PE) anti-human secondary antibody (eBioscience, CA, USA) and analyzed by flow cytometry. […] From MFI versus antibody concentration curves, Mid-Point Fluorescence (MPF) value for each anti-CD19 humanized antibody was calculated using the software GraphPad Prism 5 (CA, USA).

Residue numbers refer to the chain shown, from its start. Names may count otherwise.

B1: VH16 R94K/VL43 V3Q/T7S/Y32F/P44I/N92A (antibody, human IgG1, kappa, V domains shown)
VH: QVQLVQSGGGVVQPGRSLRLSCAASGVSLPDYGVSWVRQAPGKGLEWVAVIWGSETTYYNSALKSRFTISRDNSKNTLYLQMNSLRAEDTAVYYCAKHYYYGGSYAMDYWGQGTLVTVSS
VL: DIQMTQSPSSLSASVGDRVTITCRASQDISKFLNWYQQKPGKAIKLLIYHTSRLHSGVPSRFSGSGSGTDFTLTISSLQPEDFATYYCQQGATLPYTFGPGTKVDIKR
notes: human IgG1/kappa
B1: the “relative MPF (% of chimeric FMC63)” value was determined as 111%.

B2: VH16 R94K Y32F VL43 (antibody, human IgG1, name in Kabat numbering, V domains shown)
VH: B1 VH with Y32F
VL: B1 VL with Q3V, S7T, F32Y, I44P, A92N
notes: substitutions in Kabat numbering
Regarding B2, the “relative MPF (% of chimeric FMC63)” value amounted to 62.5%.

B3: VH16 R94K Y97F VL43 (antibody, human IgG1, name in Kabat numbering, V domains shown)
VH: B1 VH with Y100F
VL: B1 VL with Q3V, S7T, F32Y, I44P, A92N
notes: as for B2
In the case of B3, the “relative MPF (% of chimeric FMC63)” value came to 72.8%.

B4: VH16-L78V/VL43-F71Y (antibody, human IgG1, name in Kabat numbering, V domains shown)
VH: B1 VH with L78V, K97R
VL: B1 VL with Q3V, S7T, F32Y, I44P, F71Y, A92N
notes: as for B2
Regarding B4, the “relative MPF (% of chimeric FMC63)” value was 12.3%.

B5: VH16-R71K/VL43 (antibody, human IgG1, name in Kabat numbering, V domains shown)
VH: B1 VH with R71K, K97R
VL: B1 VL with Q3V, S7T, F32Y, I44P, A92N
notes: as for B2
As to B5, the “relative MPF (% of chimeric FMC63)” value came out at 4.43%.

B6: VH16-G42R/VL43-P44V (antibody, human IgG1, name in Kabat numbering, V domains shown)
VH: B1 VH with G42R, K97R
VL: B1 VL with Q3V, S7T, F32Y, I44V, A92N
notes: as for B2
On to B6, for which the “relative MPF (% of chimeric FMC63)” value worked out at 8.33%.

B7: VH16 Y32F/R94K/VL43 V3Q/T7S/Y32F/N92A (antibody, human IgG1, name in Kabat numbering, V domains shown)
VH: B1 VH with Y32F
VL: B1 VL with I44P
notes: as for B2
As for B7, the binding result is listed as “binds”.

B8: VH16-F67L/VL43-F71Y (antibody, human IgG1, name in Kabat numbering, V domains shown)
VH: B1 VH with F67L, K97R
VL: B1 VL with Q3V, S7T, F32Y, I44P, F71Y, A92N
notes: as for B2
For B8, the “relative MPF (% of chimeric FMC63)” value came out at 6.54%.

B9: VH16-F67L/VL43-Y87F (antibody, human IgG1, name in Kabat numbering, V domains shown)
VH: B1 VH with F67L, K97R
VL: B1 VL with Q3V, S7T, F32Y, I44P, Y87F, A92N
notes: as for B2
In the case of B9, the “relative MPF (% of chimeric FMC63)” value turned out to be 4.35%.

B10: VH16-L78V/VL43-Y87F (antibody, human IgG1, name in Kabat numbering, V domains shown)
VH: B1 VH with L78V, K97R
VL: B1 VL with Q3V, S7T, F32Y, I44P, Y87F, A92N
notes: as for B2
In the case of B10, the “relative MPF (% of chimeric FMC63)” value worked out at 17.9%.

B11: VH16 R94K/Y97F/VL43 V3Q/T7S/N92A (antibody, human IgG1, name in Kabat numbering, V domains shown)
VH: B1 VH with Y100F
VL: B1 VL with F32Y, I44P
notes: as for B2
For B11, the binding result is “binds”.

B12: VH16-R71K/VL43-P44V (antibody, human IgG1, name in Kabat numbering, V domains shown)
VH: B1 VH with R71K, K97R
VL: B1 VL with Q3V, S7T, F32Y, I44V, A92N
notes: as for B2
Regarding B12, the “relative MPF (% of chimeric FMC63)” value was determined as 6.93%.

B13: VH16-L78V/VL43 (antibody, human IgG1, name in Kabat numbering, V domains shown)
VH: B1 VH with L78V, K97R
VL: B1 VL with Q3V, S7T, F32Y, I44P, A92N
notes: as for B2
Take B13: the “relative MPF (% of chimeric FMC63)” value amounted to 10.8%.

B14: VH16 R94K Y98F VL43 (antibody, human IgG1, name in Kabat numbering, V domains shown)
VH: B1 VH with Y101F
VL: B1 VL with Q3V, S7T, F32Y, I44P, A92N
notes: as for B2
Regarding B14, the “relative MPF (% of chimeric FMC63)” value turned out to be 34.1%.

B15: VH16 Y32F/R94K/VL43 V3Q/T7S/N92A (antibody, human IgG1, name in Kabat numbering, V domains shown)
VH: B1 VH with Y32F
VL: B1 VL with F32Y, I44P
notes: as for B2
As for B15, the “relative MPF (% of chimeric FMC63)” value was found to be 58.8%.

B16: VH16 R94K Y96F VL43 (antibody, human IgG1, name in Kabat numbering, V domains shown)
VH: B1 VH with Y99F
VL: B1 VL with Q3V, S7T, F32Y, I44P, A92N
notes: as for B2
In the case of B16, the “relative MPF (% of chimeric FMC63)” value is 5.36%.

These data come from patent US20100215651A1 (GLENMARK PHARMACEUTICALS S A, published 2010).
